Variants at the floor of the assay were thinned out.
B1: TPR 5TU (parent)
chain: GGAUCUUCUCGAUCUAACAAAAAAGACAAAUCUGCCACAAAGCUUGAGAGCAUCUUCGGAUGCAGAGGCGGCAGCCUUCGGUGGCGCGAUAGCGCCAACGUUCUCAACUAUGACACGCAAAACGCGUGCUCCGUUGAAUGGAGUUUAUCAUG

Variants of: B1
Experiment: polymerase ribozyme fitness, log enrichment relative to wild type (log ratio); higher = more active; in vitro selection for triplet polymerase activity
Outline: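 One round of in vitro selection, in triplicate, was applied to PCR-built, transcribed mutant libraries of each subunit of a heterodimeric triplet polymerase ribozyme. The steps were annealing with a biotinylated primer, partner subunit and triplets, incubation frozen at −7 °C, gel excision of extended constructs, streptavidin-bead capture and RT-PCR. Fitness is the logarithm, base 2, of genotype enrichment over wild-type enrichment from inverse-variance-weighted replicate averages of Illumina-sequenced inputs and outputs, keeping genotypes with ≥10 input reads and ≥1 read per output.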

Variant | polymerase ribozyme fitness (log ratio)
C69A U144C | -1.07
A66G U90G C93G | ≤ -4.2
C69A U139C G140A U148A | ≤ -4.2
G65C U90C | ≤ -4.2
C69G C93G | -3.97
C69G C93A | ≤ -4.2
G67U G94C A119C U134G A147C | ≤ -4.2
A66C C85G | -4.16
C69A C79A A115U C118A | ≤ -4.2
G68C A89G A120G A147U U148G | ≤ -4.2
G65A C93U | -1.96
A66G A106G U139A | ≤ -4.2
G67C G83A C123G | ≤ -4.2
G65A C85U A97U | -2.46
A64U U148G | ≤ -4.2
C69U C85G G141A | -2.66
C63G C95A A110G A122U | -3.22
C69A A73C G86A A119C U145A | ≤ -4.2
G67C C76U C96U C149U | ≤ -4.2
A66G U77A G83U U104A G117U | ≤ -4.2
A64G G68A | ≤ -4.2

Variant | polymerase ribozyme fitness (log ratio)
C69A A73G G92C | -1.54
G68C U78A | ≤ -4.2
A66G C93U A107U A138U U139A | ≤ -4.2
C63U G70A G80C G83C C108G C116U | ≤ -4.2
G65A C69G U78A U90G C96A G100A C108A U145A | ≤ -4.2
G68U C103U G141C | ≤ -4.2
C69G G126U C131A | ≤ -4.2
G68A C93U A98U G117U | ≤ -4.2
C63U C85U C87U | -0.425
G68A C85G | ≤ -4.2
G68A C85U | -3.48
A66G G100C A107C C114U A122C G133C | ≤ -4.2
C63U C69A C85U A97C C118G G126C | -3.97
C69U A106C | -2.21
C69U C96G C125U | -1.78
A64G A91G C123G | ≤ -4.2
C63G G65C C93G A137C A142U | ≤ -4.2
A64U G92A G117C U145A | ≤ -4.2
A66C G74U G81C C87A C118A G124A | ≤ -4.2
G67A | -3.22
G67C | -3.97

Variant | polymerase ribozyme fitness (log ratio)
G67U | -2.55
G68U U101C | -4.07
G65C A66C G81A C85G A121G | -4.16
C69A G84A | -2.31
G67U C76G G143A A150G | ≤ -4.2
A66U G68C C105A | ≤ -4.2
A64C A115U A142U G143U | ≤ -4.2
G67C C69G A91U | ≤ -4.2
C69U G71U C87U A89C | -3.31
G68C G83A | ≤ -4.2
C69A G81U G84U | ≤ -4.2
C69U G70C C93G C114A A150C | ≤ -4.2
A66G A73U G81A G92U U111C | ≤ -4.2
C63U C85U A113U U146A | -3.03
G68U C69A A113G G117A | ≤ -4.2
A66G C96A A98G G136U | ≤ -4.2
G68A C85U A97U A107U G128A C132U | ≤ -4.2
C69G G86C A121C | ≤ -4.2
A64G A137G | ≤ -4.2
G67C G83A | ≤ -4.2
G67C G68A C85U C99A A115U | ≤ -4.2

Variant | polymerase ribozyme fitness (log ratio)
C69A | -1.57
C69U | -1.03
C69G | -1.51
G67A C96A | -3.46
G67A C85G A106G C129U G140C G143A | ≤ -4.2
C69A U101G G126A | -0.681
G68C G88U U104G C114U U127C | ≤ -4.2
A66U C87A A106U G143C | ≤ -4.2
G65A G71U C85A | ≤ -4.2
C69G C85U G86A | -3.62
C69G C72U | -2.71
C69G G88A U90G U146A | ≤ -4.2
C69A A73G | -2.98
G67C C93G C99G A137U U146A | ≤ -4.2
C69A G83A A121C | -1.84
G68U C75A G81U G83A C95U C96U C116U | -1.31
G68A C87U C114A U144C | -4.11
A66G G133U U145A | ≤ -4.2
A64G C75G G84U U127A A142U | ≤ -4.2
C63U G83C U102A A142G A150C | ≤ -4.2
C69U C116G | 0.325
